Assay results: patent US20180346562A1 (ANAPTYSBIO, published 2018)
Blank lines part the entries; values can stand above or below the molecule they belong to.

Assays:
human IL-33 [1] = target: T1, human IL-33 (human, UniProt O95760 112-270, limits assumed); assay: cell-based or functional assay
T1 sequence (looked up): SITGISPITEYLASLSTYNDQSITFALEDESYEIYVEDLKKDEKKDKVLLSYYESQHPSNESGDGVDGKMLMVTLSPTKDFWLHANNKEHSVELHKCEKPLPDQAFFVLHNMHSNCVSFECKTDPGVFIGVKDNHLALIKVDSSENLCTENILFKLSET

human IL-33 [2] = target: T1, human IL-33; assay: KinExA, solution equilibrium, beads coated with histidine-tagged human IL-33
Protocol: (§1) The ability of the APE4909 antibody described in Example 2 to interact with IL-33 was analyzed biophysically using a KINEXA™ 3200 biosensor platform from Sapidyne Instruments (Boise, Id.). Binding experiments for human and cynomolgus IL-33 (cynolL-33) were conducted as described below and were run twice independently. Conditions for the first experiment are shown non-parenthetically, while conditions for the second experiment are provided parenthetically.
(§2) Solid phase was prepared using azlactone-coated beads coated using a 50 μg/mL solution of histidine-tagged human IL-33. Binding experiments were performed in 1×PBS pH 7.4, 0.1% BSA. The APE4909 antibody at 10 pM (or 20 pM) final concentration was incubated with IL-33 at 200 pM to 3.4 fM (or 400 pM to 6.7 fM) final concentrations for 3 (or 4) days at 4° C. 5 mL (or 10 mL) of each mixture was applied to the beads coated with IL-33 at a rate of 0.25 mL/min for 1200 seconds (or 2400 seconds). Free antibody was detected with an ALEXAFLUOR™ 647-(Life Technologies, Carlsbad, Calif.) labeled donkey anti-human antibody. All data fit using standard KINEXA™ software.

cynomolgus IL-33 = target: T2, cynomolgus IL-33 (cynomolgus, UniProt A0A2K5W3I1 112-269); assay: KinExA solution-phase equilibrium titration: APE4909 at a fixed concentration incubated with cynomolgus IL-33 as titrant, free antibody captured on cIL-33-coated beads
T2 construct: also called cynoIL-33; cIL-33
T2 sequence: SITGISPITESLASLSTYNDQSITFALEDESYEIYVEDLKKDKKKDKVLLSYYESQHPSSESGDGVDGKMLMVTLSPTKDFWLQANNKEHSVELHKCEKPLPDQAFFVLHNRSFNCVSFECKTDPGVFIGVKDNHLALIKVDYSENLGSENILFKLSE
Protocol: as §1
as §2, with “5 mL (or 10 mL) of each mixture was applied to the beads coated with IL-33 at a rate of 0.25 mL/min for 1200 seconds (or 2400 seconds).” left out, “All data fit using standard KINEXA™ software.” left out
Experiments were performed as described above for human IL-33, except that the APE4909 antibody at 20 pM and 100 pM final concentration was incubated with cIL-33 at 3 nM to 315 fM final concentrations for 24 hours at 4° C. […] Free antibody was detected with an ALEXAFLUOR™ 647-(Life Technologies, Carlsbad, Calif.) labeled donkey anti-human antibody. […]

IC50 of inhibition of IL-33-mediated release of IL-5 in primary human basophils (human IL-33 [1]): 20 nM
Molecule: monomeric human ST2 protein (APE3906) (from UniProt Q01638 19-328) (receptor)

IC50 of inhibition of IL-33-mediated release of IL-5 in primary human basophils (human IL-33 [1]): 2.2 nM
IC50 of inhibition of IL-33-mediated release of IL-9 from primary human basophils (human IL-33 [1]): 3 nM
Kd (human IL-33 [2]): 1 pM
Kd (cynomolgus IL-33): 0.035 nM
B1: APE4909 antibody (antibody, V domains shown)
VH: QVQLMQSGAEVKKPGASVKVSCKASGYTFTSYWMHWVRQAPGQGLEWMGTIYPRNSNTDYNQKFKARVTMTRDTSTSTVYMELSSLRSEDTAVYYCARPLYYYLTSPPTLFWGQGTLVTVSS
VL: DIQLTQSPSFLSASVGDRVTITCKASQDVGTAVAWYQQKPGKAPKLLIYWASTRHTGVPSRFSGSGSGTEFTLTISSLQPEDFATYYCQQAKTYPFTFGSGTKLEIKR
notes: the claims treat these entries as variable regions; It was detected with an anti-human antibody; also called APE04909; APE4909.02 (lot suffix)
